US12173349B2, “Lung protease nanosensors and uses thereof” (Massachusetts Institute of Technology, priority 2018, dated 2024)
Primed or numbered codes have the meaning given here. Where no end group is shown, it is not given here. FAM = carboxyfluorescein fluorophore label; 5FAM′ = 5-carboxyfluorescein

Experiments:
PA01 supernatant = experiment: cleavage of FRET-paired substrates by bacterial supernatant; assay type: biochemical, Pseudomonas aeruginosa; conditions: PA01 culture supernatant, fluorescence change at 30 minutes
Procedure: (§1) The specificity of LAS and ELA for P. aeruginosa cleavage was tested by collecting supernatants from PA01 or Staphylococcus aureus cultures and incubating them with FRET-paired substrates LAS-Q and ELA-Q in 384 well plates. […] To investigate whether the LAS and ELA substrates are also susceptible to cleavage by host proteases, each was incubated with recombinant mouse proteases.
(§2) Supernatant from PA01 and S. aureus were collected and added to substrates in 384 well plates and dequenching of FAM was monitored at 37° C. (Tecan). Fluorescence change at 30 minutes was reported. For recombinant protease assays, enzyme was added to the substrates in enzyme-specific buffer (MMP7 & 9 buffer: 50 mM Tris, 150 mM NaCl, 5 mM CaCl2), […], pH 7.5; Thrombin: PBS; NE: 100 mM HEPES, 500 mM NaCl, 0.05% Tween 20) in a 384 well plate for time-lapse fluorimetry to measure dequenching at 37° C. (Tecan).

MMP13 = MMP13 (Mus musculus, UniProt P33435); experiment: recombinant host protease cleavage assay; assay type: biochemical
Procedure: as §1, §2

thrombin = thrombin (Mus musculus, UniProt P19221); experiment: recombinant host protease cleavage assay; assay type: biochemical
Procedure: as §1, §2

MMP7 = biological target: T1, MMP7 (Mus musculus, UniProt Q10738); experiment: recombinant host protease cleavage assay; assay type: biochemical
T1 sequence (Q10738 95-264): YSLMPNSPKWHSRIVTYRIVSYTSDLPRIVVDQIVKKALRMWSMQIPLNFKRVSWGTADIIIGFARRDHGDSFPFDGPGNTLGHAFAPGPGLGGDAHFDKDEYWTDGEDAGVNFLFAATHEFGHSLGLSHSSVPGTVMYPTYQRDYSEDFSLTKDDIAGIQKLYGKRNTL
Procedure: as §1, §2

[1] = system: P. aeruginosa clinical isolate strains; experiment: cleavage of FRET-paired substrates by clinical isolate supernatants; assay type: biochemical, Pseudomonas aeruginosa; conditions: five clinical isolate strains
Procedure: P. aeruginosa strains isolated from de-identified clinical samples were generously provided by Dr. Deborah Hung, MD, PhD (Massachusetts General Hospital). Cultures of each were grown in LB broth overnight, then were subcultured in fresh LB and each strain grown to OD-matched mid log phase (OD600˜0.5). Supernatants were collected by centrifugation and substrate cleavage was monitored as described above.

[2] = urinary filtration of mass-encoded free reporters after IT or IV administration; assay type: in vivo, mice; conditions: doses 2.5 ng to 25 ng, urine at 1 hour
Excerpt: To enable detection of a broad spectrum of disease-associated proteases in vivo, the 14 peptides of the LUAD substrate panel were appended with mass-encoded reporters (PP1-14; Table 3). Following substrate proteolysis, the reporters diffuse away from the nanoparticle scaffold and are sized so as to be able to efficiently cross into the bloodstream, where they can be concentrated into the urine by glomerular filtration (FIG. 1B). As previously described (Kwong et al., Nat Biotechnol 31, 63-70, 2013), variable labeling of the 14-mer Glu-Fibrinopeptide B (Glu-Fib) with stable isotope-labeled amino acids was used to uniquely barcode each of 14 peptide substrates. Multiple reaction monitoring via a liquid chromatography triple quadrupole mass spectrometer (LC-MS/MS) enables quantitative assessment of peptide-liberated urinary reporter concentration within a broad linear range (1-1000 ng/mL, FIG. 8A). Using mass-encoded free reporters, the filtration of Glu-Fib reporters into the urine after IT or IV administration was assessed and strong linearity of the MS assay for both routes of delivery for input doses between 2.5 ng and 25 ng (R^2=1.00, FIG. 8B) was found for both routes of delivery (sloperIT=0.075 ng^−1, slopeIV=0.077 ng^−1; FIG. 8B).
Liquid chromatography/tandem mass spectrometry was performed by Syneos Health (Princeton, NJ) using a Sciex 6500 triple quadrupole instrument. […]

recombinant human MMP13 = biological target: T2, recombinant human MMP13 (Homo sapiens, UniProt P45452); experiment: cleavage of aerosolized fluorogenic nanosensor by MMP13; assay type: biochemical; conditions: 50 nM MMP13, 5 μM nanosensor
T2 construct: purchased Enzo
Procedure: As a step toward developing a more clinically relevant delivery method, particle durability and biodistribution after aerosolization were also characterized.
Analysis of nanoparticle stability and protease cleavage susceptibility following aerosolization used […] 250 μM PEG-840 kDa scaffold (FIGS. 22B-22E) or 5 μM PPQ5 PEG-840 kDa nanosensors (FIG. 22F). Protease cleavage assays of aerosolized nanoparticles used 50 nM of recombinant human MMP13 (Enzo).

Question: Which results are given for “LAS-Q: FRET-paired (FAM fluorophore, Dabcyl quencher) substrate for P. aeruginosa protease LasA; includes SEQ ID NO: 45 (GLGGGAGK(FAM); also: Dabcyl quencher, site not given here)”?
Answer: cleavage by supernatant (fluorescence signal) (PA01 supernatant): greater selectivity for cleavage of LAS-Q by PA01; cleavage by recombinant protease (MMP13): resist cleavage; cleavage by recombinant protease (thrombin): resist cleavage; cleavage by recombinant protease (MMP7): resist cleavage; strains whose supernatant gave significant cleavage [1]: 3 of the 5 strains

Question: With “Glu-Fib reporters: mass-encoded free reporters, stable isotope-labeled variants of 14-mer Glu-Fibrinopeptide B” as the substance, how does the “slope of urinary reporter signal versus input dose” value ([2]; IT administration) read?
Answer: 0.075 ng⁻¹

Question: And the “slope of urinary reporter signal versus input dose” value ([2]; IV administration)?
Answer: 0.077 ng⁻¹

Question: Which “sensitivity to in vitro cleavage pre- versus post-aerosolization” value (recombinant human MMP13) does the source give for “PEG-PPQ5: fluorogenic nanosensor, PPQ5 on PEG-840 kDa ({5FAM′}-GGPLGVRGKKC; not fully specified (residue 10); printed as GGPLGVRGKK(CPQ2)-PEG2-C; also: on PEG-840 kDa carrier, site not given here)” here?
Answer: equally sensitive
